For experiment [1], the target named is IgE of pooled serum samples (human). The experiment can be described thus: cross-inhibition ELISA; C. idella parvalbumin on the plate; inhibitor concentration not stated. A general note: In an ELISA, binding on a coated surface is turned into a signal by an enzyme label.
Experiment [2] shares this target. The experiment can be described thus: cross-inhibition ELISA; inhibitor 1 ug/ml with pooled sera; C. idella parvalbumin on the plate.
For experiment [3] the target is unchanged. The experiment can be described thus: cross-inhibition ELISA; inhibitor 50 ug/ml with pooled sera; C. idella parvalbumin on the plate.

From patent US20200191797A1 come the findings set out here.

B1: recombinant aldolase A of grass carp Ctenopharyngodon idella (enzyme, not shown: small tags and cut ends)
chain: MPHAYPFLTPEQKKELSDIALRIVAPGKGILAADESTGSVAKRFQSINAENTEENRRLYRQLLFTADDRVKPCIGGVILFHETLYQKADDGKLFSQLLKERGMVVGIKVDKGVVPLAGTNGETTTQGLDGLYERCAQYKKDGADFAKWRCVLKITSTTPSRLAIIENANVLARYASICQMHGIVPIVEPEILPDGDHDLKRCQYVTEKVLAAVYKALSDHHVYLEGTLLKPNMVTAGHSCSQKNTPQEIAMATVTALRRTVPPAVPGITFLSGGQSEEEATLNLNAMNKCPLHRPWALTFSYGRALQASALKAWGGKKENGKACQEEFIKRALNNSLACVGKYVSSGDKGAAAGESLFVANHAY
On to B1, for which, in experiment [1], the % inhibition of IgE binding was found to be 10%.

B2: recombinant cod allergen Gad m 1 (cod parvalbumin) (protein, UniProt Q90YK9 1-109, looked up, not shown: small tags and cut ends)
chain: MAFAGILNDADITAALAACKAEGSFDHKAFFTKVGLAAKSPADIKKVFEIIDQDKSDFVEEDELKLFLQNFSAGARALSDAETKVFLKAGDSDGDGKIGVDEFGAMIKA
Turning to B2, the % inhibition of IgE binding in experiment [2] came out at 40%; in experiment [3], 50%.
